Laboratory results published in patent US20230250176A1.

How the values were obtained:
[1] = molecular target: purified recombinant human FcγRI (human) (UniProt P12314); assay: SPR (Biacore 8K), 25 C
[2] = molecular target: purified recombinant human FcγRIIa H131 (human) (UniProt P12318); assay: SPR (Biacore 8K), 25 C
Sequence of purified recombinant human FcγRIIa H131 (human) (P12318 36-218 limits assumed): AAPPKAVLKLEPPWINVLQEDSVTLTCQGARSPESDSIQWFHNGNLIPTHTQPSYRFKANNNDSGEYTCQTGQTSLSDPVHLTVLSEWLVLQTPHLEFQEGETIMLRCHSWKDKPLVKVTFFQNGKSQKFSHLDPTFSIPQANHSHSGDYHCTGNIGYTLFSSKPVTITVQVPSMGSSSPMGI

Kd [1] [nM] | Kd [2] [nM] | Substance
7.3 | – | cetuximab (antibody)
– | 1100 | panitumumab (antibody)
